Legend:
[1] = target: CFP-Gβ1 with untagged Gγ2; assay: FRET at the plasma membrane of control HeLa cells, before Wnt5a stimulation (FIG. 2J, L)
[2] = target: CFP-Gβ1 with untagged Gγ2; assay: FRET at the plasma membrane of control HeLa cells, within 5 min after Wnt5a stimulation (FIG. 2J, L)
FZD7-CFP [3] = assay: FRET at the plasma membrane of HEK293 cells within 5 min after Wnt5a stimulation (FIG. 4H, I)
FZD7-CFP [4] = assay: FRET at the plasma membrane of starved HEK293 cells; printed: No such interaction was observed in starved cells (FIG. 4H, I)

Chain of CFP-Gβ1 with untagged Gγ2 (P62873 2-340, chain 1 of 2): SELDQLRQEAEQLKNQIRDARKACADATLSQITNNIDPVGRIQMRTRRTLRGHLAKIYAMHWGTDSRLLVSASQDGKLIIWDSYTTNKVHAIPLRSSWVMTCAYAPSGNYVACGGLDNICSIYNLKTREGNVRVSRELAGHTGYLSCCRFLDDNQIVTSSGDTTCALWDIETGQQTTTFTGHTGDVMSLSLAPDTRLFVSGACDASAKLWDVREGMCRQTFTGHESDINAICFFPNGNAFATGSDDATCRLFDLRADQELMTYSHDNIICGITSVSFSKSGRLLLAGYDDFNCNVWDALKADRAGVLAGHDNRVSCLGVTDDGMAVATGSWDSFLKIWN
Chain of CFP-Gβ1 with untagged Gγ2 (P59768 2-68, chain 2 of 2, further chain): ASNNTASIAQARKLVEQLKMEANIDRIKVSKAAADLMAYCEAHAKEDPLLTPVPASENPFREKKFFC
Chain of Gαi1-YFP (internally tagged) (P10824 2-354): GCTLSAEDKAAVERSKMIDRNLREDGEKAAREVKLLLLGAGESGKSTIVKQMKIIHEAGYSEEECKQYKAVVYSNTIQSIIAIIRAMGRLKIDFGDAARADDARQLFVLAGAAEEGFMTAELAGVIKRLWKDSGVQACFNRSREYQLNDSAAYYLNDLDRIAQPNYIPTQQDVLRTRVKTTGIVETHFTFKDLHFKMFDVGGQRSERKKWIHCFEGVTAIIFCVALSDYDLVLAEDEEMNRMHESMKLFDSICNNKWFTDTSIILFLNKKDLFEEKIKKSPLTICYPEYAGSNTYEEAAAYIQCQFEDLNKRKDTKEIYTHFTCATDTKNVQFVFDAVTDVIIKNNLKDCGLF

Row | Substance | FRET efficiency [1] | FRET efficiency [2] | FRET efficiency (FZD7-CFP [3]) | FRET efficiency (FZD7-CFP [4])
1 | Gαi1-YFP (internally tagged) | 0.36 | 0.17 | – | –
2 | Gαi3-YFP (internally tagged) | – | – | 0.25 | 0.04
